For assay [1], the target named is T1, recombinant heparanase 8 kDa/50 kDa heterodimer (baculovirus, insect cell expressed) (human, UniProt Q9Y251 36-109; Q9Y251 158-543).
T1 construct: domain: 8 kDa subunit;domain: 50 kDa subunit; Amplified from a mammary gland cDNA library; In one screening ELISA it was biotinylated; also called 8/50 heterodimer protein; purified recombinant heparanase
T1 sequence 1: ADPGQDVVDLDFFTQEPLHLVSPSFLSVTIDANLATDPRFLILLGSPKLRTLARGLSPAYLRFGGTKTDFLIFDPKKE
T1 sequence 2: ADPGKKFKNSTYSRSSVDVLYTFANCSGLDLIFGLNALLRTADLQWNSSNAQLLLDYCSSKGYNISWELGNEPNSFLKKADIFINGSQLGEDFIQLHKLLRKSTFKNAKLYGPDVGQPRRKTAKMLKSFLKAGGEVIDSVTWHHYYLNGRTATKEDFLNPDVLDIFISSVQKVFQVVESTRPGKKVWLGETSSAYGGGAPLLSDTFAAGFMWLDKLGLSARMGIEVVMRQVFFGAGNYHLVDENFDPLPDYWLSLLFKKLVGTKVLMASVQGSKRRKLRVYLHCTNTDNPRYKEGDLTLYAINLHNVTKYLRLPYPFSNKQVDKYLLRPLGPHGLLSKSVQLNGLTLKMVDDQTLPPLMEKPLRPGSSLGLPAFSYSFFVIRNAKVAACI
Put plainly: ELISA on coated recombinant heparanase and on biotin-heparanase captured by streptavidin; hybridoma supernatants. As for the experimental part:
To select KM mice producing antibodies that bound heparanase, sera from immunized mice was tested by ELISA as described by Fishwild, D. et al. (1996). Briefly, microtiter plates were coated with purified recombinant heparanase from baculovirus at 1-2 μg /ml in PBS, 50 μl/wells incubated 4° C. overnight then blocked with 200 μl/well of 5% chicken serum in PBS/Tween (0.05%). Dilutions of plasma from heparanase-immunized mice were added to each well and incubated for 1-2 hours at ambient temperature. The plates were washed with PBS/Tween and then incubated with a goat-anti-human IgG Fc polyclonal antibody conjugated with horseradish peroxidase (HRP) for 1 hour at room temperature. After washing, the plates were developed with ABTS substrate (Sigma, A-1 888, 0.22 mg/ml) and analyzed by spectrophotometer at OD 415-495. Mice that developed the highest titers of anti-heparanase antibodies were used for fusions. Fusions were performed as described above and hybridoma supernatants were tested for anti-heparanase activity by ELISA. In order to select antibodies that bind to heparanase enzyme, an ELISA assay as described above and a biotinylated ELISA as described above with following modifications were applied. Briefly, ELISA plates were coated with streptavidin (Sigma catalog number: S-4762) at 1 μg/ml in PBS, 50 ul/well. After overnight incubation at 4° C., the plates were blocked with 200 μl/well of 5% chicken serum in PBS/Tween (0.05%). The plates were then washed with PBS/Tween three times. Biotin-heparanase was added to the plates at 1 μg/ml in PBS, 50 ul/well and then incubated for 1 hour at room temperature. 50 ul/well of the supernatants were then added to the plates and incubated for 1-2 hours at room temperature. The rest of the procedures were exactly the same as described above. Hybridomas secreting a monoclonal antibody that bound with high avidity to heparanase were selected for further characterization for enzymatic, motility and angiogenesis activities.
(ELISA stands for enzyme-linked immunosorbent assay.)

Assay [2] addresses T1, recombinant heparanase 8 kDa/50 kDa …. Briefly: competition binding format.

B1: human monoclonal antibody 5G10 (antibody, V domains shown)
VH: QVQLVQSGAEVKKPGASVKVSCKVSGYTLTELSMHWVRQAPGKGLEWMGGFDPEDGETIYAQKFQGRVTMTEDTSTDTAYMELSSLRSEDTAVYYCATESLVRYFDWLSHFDYWGQGTLVTVSS
VL: DIQMTQSPSSLSASVGDRVTITCRASQGISSWLAWYQQKPEKAPKSLIYAASSLQSGVPSRFSGSGSGTDFTLTISSLQPEDFATYYCQQYNSYPYTFGQGTKLEIK
notes: Human IgG kappa from a KM mouse hybridoma; subclass not reported
As to B1, the binding result in assay [1] is given as “binds”.

B2: human monoclonal antibody 13B2 (antibody, V domains shown)
VH: EVQLVESGGGLVQPGGSLRLSCAASGFTFSSYWMSWVRQAPGKGLEWVASIYQDGSEKYYVDSVKGRFTISRDNAKNSLYLQMNSLRAEDTAMYYCARELDWGWDYWGQGTLVTVSS
VL: AIQLTQSPSSLSASVGDRVTITCRASQGISSALAWYQQKPGKAPKLLIYDASSLESGVPSRFSGSGSGTDFTLTISSLQPEDFATYYCQQFNSYPITFGQGTRLEIK
notes: as for B1
B2: the binding result in assay [1] is listed as “binds”.

B3: human monoclonal antibody 22D9 (antibody, V domains shown)
VH: QVQLVQSGAEVKKPGASVKVSCKVSGYTLTELSMHWVRQAPGKGLEWMGGFDPEDGETIYAQKFQGRVTMTEDTSTDTAYMELSSLRSDDTAVYYCATESLVRYFDWLSHFDYWGQGTLVTVSS
VL: DIQMTQSPSSLSASVGDRVTITCRASQGISSWLAWYQQKPEKAPKSLIYAASSLQSGVPSRFSGSGSGTDFTLTISSLQPEDFATYYCQQYNSYPYTFGQGTKLEIK
notes: Fully human IgG with kappa light chain from a KM mouse hybridoma, purified by Protein A
Consider B3, for which the binding result in assay [2] is “binds”.

B4: human monoclonal antibody 1E7 (antibody, V domains shown)
VH: EVQLVESGGGLVQPGGSLRLSCAASGFTFSSYWMSWVRQAPGKGLEWVASIYQDGSEKYYVDSVKGRFTISRDNAKNSLYLQMNSLRAEDTAVYYCARELDWGWDYWGQGTLVTVSS
VL: AIQLTQSPSSLSASVGDRVTITCRASQGISSALAWYQQKPGKAPKLLIYDASSLESGVPSRFSGSGSGTDFTLTISSLQPEDFATYYCQQFNSYPITFGQGTRLEIK
notes: as for B1
As to B4, in assay [1], the binding result was “binds”.

B5: human monoclonal antibody 2H8 (antibody, V domains shown)
VH: QVQLVQSGAEVKKPGASVKVSCKVSGYTLTELSMHWVRQAPGKGLEWMGGFDPEDGETIYAQKFQDRVTMTEDTSTDTAYMELSSLRSEDTAVYYCTTESLVRYFDWLSHFDYWGQGTLVTVSS
VL: DIQMTQSPSSLSASVGDRVTITCRASQGISSWLAWYQQKPEKAPKSLIYAASSLQSGVPSRFSGSGSGTDFTLTISSLQPEDFATYYCQQYNSYPYTFGQGTKLEIK
notes: as for B1
For B5, the binding result in assay [1] was “binds”.

These data come from patent publication US20040170630A1 (published 2004).
